Here are results for 23 sequences from a protein production outcome set (Wang et al. 2014).

This series in a line: label from the status in PepcDB records.
As to “MTPDRKGDGGPSPLGDLKDALGGYLSAAGHGLVGRAGDRLGSLTDRLTESADGGGANGGTGGSEPGTGGSRSGSDGSKSGSGGSKSGSGGSKSGGSVKATHIMETVDIGVPLRTVYDQWTQLQDFSDFTKGVQSVSPHDETTSDWTAKIAFSTRSWKATVQEQIPDQRIVWTSEGAKGSTNGVVTFHELAPRLTRVVVVVEYYPAGFFEKTGNLWRAQGRRLRLDLKHFARHVTMTDAEEIEGWRGEIRDGEVVKSHEEALEEDEDAADEYEDDEEGEYDEEESDGEVPDGEEEPYADEDDGEYENDDAYEADDEDDERARPRR”, the protein production result is “failed”.
The value for “MAIERIQLHTHGDDRGLLISLEQQRNVPFEIRRVYYLFGTRHDVHRGQHAHRQLNQFAVALHGSVTILLDEGNGNGPSEVVLDDPSQGLLLGRMVWRDLYRFSADCVLMVLADQPYDPGDYILDYDQFVSEVRNGTALQARRLEA” was “failed”.
The value for “MKRVFVFQDFKSQKFWSIDVRGTDVIVNYGKLGTDGQTQVKNFSSAGEAEKAAGKLIAEKTKKGYVETLEEVAKEMKVEAKKYALSYDEAEEGVNLMDKILKDKKLPSLKQITIGCWGYEGEDCSDIADGIVENKEKFAHFEGLFWGDIDFEEQEISWIEQVDLSPVLDAMPLLNNLKIKGTNNLSIGKKPRPNLKSLEIISGGLPDSVVEDILGSDLPNLEKLVLYVGVEDYGFDGDMNVFRPLFSKDRFPNLKWLGIVDAEEQNVVVEMFLESDILPQLETMDISAGVLTDEGARLLLDHVDKIKHLKFINMKYNYLSDEMKKELQKSLPMKIDVSDSQEYDDDYSYPMITELEHHHHHH” was “not failed”; that for “MTLKPTQQRLLLMLGWLHLQCGQPRRAQVLLEALLSVAPERRDGRRALLLALLQQGLGEPAVRLCRQLQEDGEEEPGLWRCLSRAEQLAGRLDAARAAHARALELEARELEHHHHHH” was “not failed”; that for “MNKALIVILSTVALDAIGAGLIFPILPDILVEVTGGGDIGFLYGVMLGVFAVMQFVFSPILGALSDRFGRRPVLLLSLAGTLLDYLVMAFSPLGWVLVVGRAMAGITSANMAVASAYITDITPAEQRAQRFGTVGAVMSLGFIIGPVIGGVIGAWWLRAPFLVAALFNGLNLFVALFVLPESRKAGPGKFAFKELNPLAPLVWLWNFKPLLPLVTVSVVFGLVAAIPGTIWVLYGAERFGWDSVHMGLSLSVFGVSGALAQAFLVGPLSRRFGDLGTLMIGVGFDMLAYMLMAFANQSWMGYAVAPLFALGGVAMPALQSLVTSRVSDDQQGQLQGVLASLMSLAGIIGPVLTTAVFFSTKSIWIGTIWLVGAALYLLALPLFATVKTPKAVAA” was “failed”.
With “MVDDNTDQSLSFGRLLFGAGLALQASEDFREMDETVEYAESAGVPVPDVLAPLASGMMLVGGIGVALWRFPRIATGAVVTFLAVVTPTMHDFWNAEPGDRSGERLAFFGNLAMLGAALAYLRKAYR” the entry was “failed”; with “MKISIICPLYNAENYIMSLHNKILEQEKPEGTEVEVSYVLTRCKDKTEEMLKNMNLQYTLIEPKDFSHSKTREMMAFKSTGDIIVFISQDVMMKNNFWLKNLVQPIIDGECEASFSRQLCTNNTIEKYIREKNYPEESRVVSKKDINKYGLLTFFYSDASSAVKTSVYKELNGYDNKRLLINEDMYFAEKLIQAGYRIKYCSDSEVYHSHVFTLKSLYERYFDTGVFFRQNSQFLNYKGNKSGKDLAIHVLKRSLEDKNFKVTLNILPNFGARFIGSFLGKKYESLPRSFVMASSMSKKVYSQILEHHHHHH”, “not failed”; with “MRFRYAMVCSSNQNRSMEAHALLKRQGLDVASYGTGSHVKLPGPSLREPNVYDFGTPYKQMFDELRRKDPELYKRNGILQMIKRNLSVKLAPQRWQDNAGDGVFDVVMTFEEKVFDSVLEDLNNREQSLTKTILVMNLEVKDNHEEAAIGGRLALELCQEIEGNETWEDTIDDIVAGFEKQHRRKLVYSISFY”, “failed”.
In the case of “MRRVTVPTAPPAYADIGYPMSMLPIKSSRAVSGIQQKQEVLPGMDTPSNSMRPVADDNIDHTSHTPNGVASAFILEATVNVISGPKVLMKQIPIWLPLGIADQKTYSFDSTTAAIMLASYTITHFGKANNPLVRVNRLGQGIPDHPLRLLRMGNQAFLQEFVLPPVQLPQYFTFDLTALKLVTQPLPAATWTDETPSNLSGALRPGLSFHPKLRPVLLPGKTGKKGHVSDLTAPDKIQTIVNLMQDFKIVPIDPAKSIIGIEVPELLVHKLTGKKMSQKNGQPIIPVLLPKYIGLDPISPGDLTMVITPDYDDCHSPASCSYLSEK”, the protein production result is given as “not failed”.
“MDKNNLEDLTGKKILRNGFGGLRLEYGTIFLDVGLFTYIVLILSIFFFLVERWFLGALTFVLHVPLLLLGIWCGER”: the protein production entry is listed as “failed”.
The value for “MGHHHHHHSHMIRINEIKLPLDHEEGALLDAITKKLGIPAEKVISFNVFRRGYDARKKTNIHLIYTLDIIVEGDETALLAKFANDPHVRQTPDMEYKFVAKAPENLTERPIVIGFGPCGLFAGLVLAQMGFNPIIVERGKEVRERTKDTFGFWRKRTLNPESNVQFGEGGAGTFSDGKLYSQVKDPNFYGRKVITEFVEAGAPEEILYVSKPHIGTFKLVTMIEKMRATIIELGGEIRFSTRVDGLHMEDGQITGVTLSNGEEIKSRHVVLAVGHSARDTFEMLHERGVYMEAKPFSVGFRIEHKQSMIDEARFGPNAGHPILGAADYKLVHHCKNGRTVYSFCMCPGGTVVAATSEEGRVVTNGMSQYSRAERNANSAIVVGISPEVDYPGDPLAGIRFQRELESNAYKLGGENYDAPAQKIGDFLKGRDPSQLGDVEPSFTPGIKLTDLSKALPPFAVEAIREAIPAFDRKIKGFASEDGLLTGVETRTSSPVCIKRGKDFQSVNLKGFYPAGEGAGYAGGILSAGIDGIKVAEAVARDIVAAMENA” was “not failed”; that for “MQRFVCEQNIAHFQKLLETAEDEKLRRTLLGLLSSAKRELALLHSRLSGADLSPLAYRNRGGDLNSVLAQIRAGFDASDHPYMLIDAGPGLKIIDINDAYARATFTAREAIVGKPLFEIFPDNPAIDTADGVSNVYNSLRAVVETGEPHALAVQRYDMRNTEGVFVERYWQSINTPVRDAGGKLICLLHNVEDVTAEVLAN” was “failed”; that for “MAGFPELVVLDPPWDKELAAGTESQALVSATPREDFRVRCTSKRAVTEMLQLCGRFVQKLGDALPEEIREPALRDAQWTFESAVQENISINGQAWQEASDNCFMDSDIKVLEDQFDEIIVDIATKRKQYPRKILECVIKTIKAKQEILKQYHPVVHPLDLKYDPDPAPHMENLKCRGETVAKEISEAMKSLPALIEQGEGFSQVLRMQPVIHLQRIHQEVFSSCHRKPDAKPENFITQIETTPTETASRKTSDVVLKRKQTKDCPQRKWYPLRPKKINLDT” was “failed”.
With “SEQSSPGFRQTHLQDLSEATQDVKEENHYLTPRSVLLELDNIIASSDSGESIETDGPDQVSGRIECHYEPMESYFFKETSHESVDSSKEEPQTLPETQDGDLHLQEQGSGIDWCLSPADVEAQTTNDQKGSASLTVVQLSILINNIPDESQVEKLNVFLSPPDVINYLALTEATGRICVSQWEGPRRLGCIFCHGDHLLAVNDLKPQSLEEVSLFLTRSIQKEKLKLTIGRIPNSETFHAASCMCPSKCQSAAPSQLDKPRLNRAPKRSPAIKKSQQKGARE” the entry was “not failed”; with “MRVCAVVVTYNRKDLLVECLEALRRQTGPLDAIYIIDNASTDGTPELLRSRGYRDGAVIENPLDGSEIVIRYVRLPVNTGGAGGFHEGVKRAFHDGYDWIWLMDDDAEPLPDSLQGLLRYADDDTAALANLKVSPDGRPQYIHRGFFDFDSFGTFVRPVTEDDLREETLEIDHASFVGILINSDSVREIGFPRKEFFLHYDDVEYCLRLRSTGKIILVPGSLILHKEAAERGNLTKGLFGREIPVVPYDKLWLRYYGVRNSIWLRRKEMGRARLFIFMVRAILLSVAAQIITGIREKPFRRVRFILSAYSDGLRGRFDNEKPRRILYG”, “failed”.
With “MKRYPRDMRGHGPTPPDAAWPGGARIAVSIVLNYEEGGENCLLHGDAQSEAFLSDIAGAQPWPGQRHWNMESIYDYGARAGFWRLHRLFTGLNIPVTVYGVATALARSPEQVAAMKSAGWEIASHGLKWVEHRDMPEEEERRQIAEAIRLHAEVVGERPRGWYTGRCSVNTVRLTAEEGGFDWISDTYDDDQPYWLETGTRDQLVIPYTLEANDMRFATAPGYIEGEQFFTYLRDSFDTLYAEGCAGQAKMFSIGLHCRLIGRPGKIAGLKRFLDYARTHERVWFPCRGDIARHWHETHPHRRRPRPSRMDRESFVAHFGGIYEHSPWIAERAFELELGPAHDSPAGLANALARIFRSATPAERLSVLKAHPDLAGKLAQARRLTASSSFEQSSAGLDALTDAERAEFATLNADYVAKHGFPFIIAVRDHDKAGILAAFETRLAHDSATEFATACRQVERIAELRLQDMLKLEHHHHHH” the entry was “failed”; with “MKVKIYTRNGCPYCVWAKQWFEENNIAFDETIIDDYAQRSKFYDEMNQSGKVIFPISTVPQIFIDDEHIGGFTELKANADKILNKK”, “not failed”; with “TAQLTIEAVPSNAAEGKEVLLLVHNLPQDPRGYNWYKGETVDANRRIIGYVISNQQITPGPAYSNRETIYPNASLLMRNVTRNDTGSYTLQVIKLNLMSEEVTGQFSVHPETPKPSI”, “not failed”.
Turning to “MTKKLNPLEDPPTATSSDEDDVETSEAGEASDDSSSSEEDVPIKIRIKSPSATTAAAPPAKSTAVSTAADSDSGSETETDSDSESTNPPNSGSGKTIALNTVNLKKKEDPTSSSATLALPAMKSGTKRPASEAAATTSTKRVKKDEESVKKPGGFQRLWSEEDEILVLQGMIDFKADTGKSPYVDTNAFYDFLKKSISFEVSKNQFMDKIRSLRKKYIGKEGRNEPSFVKAHDKKAFELSKFIWGPKGIALDSNVKSNGVSKKSVAKKKIDSVKQELVFAGGSSTNGKKVEEDGGDDGCDWFDNSSLVRMIASLGVDEYYVKQQWSLVSVESKKIVEEKYKLLQAKELEFVLEKTKFLNEVASMFVEASKNKPLDT”, the protein production result is “failed”.
The value for “AIAMFTLPLLFPIITLPEPTGKYTVGTKAFHLIDTNRKETTVPNNHGNRELMIQVYYPAEKGSGKPSAYFENIDALAEQLAVTKGAPYIVTTHLGLTKTHSYQDAKPLQVKEKFPLLLFGHGMELYGQQNTFQLEELASQGYVVIALNFTGYAATTIFPNGKRIDSVPIEFTPNALNNMVRNWEQDTTFILNEVIKGNFDKNFTAIANLIDDDKIGMFGHSYGGATAAQMLVKDNRIKAAIDMDGGLYGDPMPKDGPQKPFMLMNAEATIQYMKEAENQKTDGIQDELFEISYLRNKTIEKPGAYTVVLPKTNHNSFTDLAAFSPIINEPGEDVSANYTLINKLVTSFFDQTLKG” was “failed”; that for “VGKPKMDVDLLQVDADLKKEIFDAYYNTMKTAVMTEEKLAREVEIDKVKDTVKEVYAEKFSEHEEEAQLLKEVKQIAEDLEKDVVRELITIDKIRPDGRKLDEIRH” was “not failed”.
The value for “MNKRVQAFLAKMQEKELDGIIINNLKNVYYLTGFWGSNGTVFISRDRQVLVTDSRYIIAAKQETSGFEIVADRDELAVIAGIVKDMGLTRIGFEDEISVSYYHRMQAAFAGLNLLPQTQFVEGLRMIK” was “failed”; that for “MRLLISLIAGALFGGGLFVSGMTDTRKVQGWLDVFGDWDPTLAFVMGGAILPMLLAWRLTEGRKPLAGGSFPALPRPEMDHRLITGSVLFGMGWGLAGLCPGPAIASLSYGGVGGLIFLVAMLAGMAVAPRVGTQLDRLAATA” was “failed”.
